According to patent publication WO2015116852A1 (dated 2015):

T1: Recombinant human monomeric IL-6R protein (human, UniProt P08887 20-358)
T1 construct: also called monomeric hIL-6R; human receptor
T1 sequence: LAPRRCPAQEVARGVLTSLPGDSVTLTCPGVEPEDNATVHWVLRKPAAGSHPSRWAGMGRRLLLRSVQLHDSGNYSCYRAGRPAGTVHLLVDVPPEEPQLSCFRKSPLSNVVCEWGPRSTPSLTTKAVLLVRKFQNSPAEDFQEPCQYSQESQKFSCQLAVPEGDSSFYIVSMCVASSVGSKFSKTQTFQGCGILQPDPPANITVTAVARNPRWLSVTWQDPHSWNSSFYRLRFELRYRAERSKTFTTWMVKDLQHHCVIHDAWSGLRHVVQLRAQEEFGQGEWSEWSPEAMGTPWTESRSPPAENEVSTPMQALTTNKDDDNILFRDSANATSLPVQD

T2: Recombinant monkey monomeric IL-6R protein (Macaca fascicularis, extracellular domain) (Macaca fascicularis, UniProt P08887 21-330 (human entry))
T2 construct: also called monkey IL-6R; monkey receptor
T2 chain: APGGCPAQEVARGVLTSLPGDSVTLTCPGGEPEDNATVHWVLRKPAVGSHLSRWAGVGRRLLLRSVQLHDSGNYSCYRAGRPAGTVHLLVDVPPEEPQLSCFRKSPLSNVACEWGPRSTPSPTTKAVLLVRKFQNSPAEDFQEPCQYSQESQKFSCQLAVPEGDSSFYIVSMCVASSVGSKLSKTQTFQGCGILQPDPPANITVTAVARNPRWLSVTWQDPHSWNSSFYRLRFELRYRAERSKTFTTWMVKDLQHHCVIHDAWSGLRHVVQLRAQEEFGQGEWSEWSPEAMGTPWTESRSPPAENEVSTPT

T3: hIL-6R recombinant protein (human, UniProt P08887 20-358)
T3 construct: also called hlL-6R recombinant protein; human IL-6R
T3 sequence: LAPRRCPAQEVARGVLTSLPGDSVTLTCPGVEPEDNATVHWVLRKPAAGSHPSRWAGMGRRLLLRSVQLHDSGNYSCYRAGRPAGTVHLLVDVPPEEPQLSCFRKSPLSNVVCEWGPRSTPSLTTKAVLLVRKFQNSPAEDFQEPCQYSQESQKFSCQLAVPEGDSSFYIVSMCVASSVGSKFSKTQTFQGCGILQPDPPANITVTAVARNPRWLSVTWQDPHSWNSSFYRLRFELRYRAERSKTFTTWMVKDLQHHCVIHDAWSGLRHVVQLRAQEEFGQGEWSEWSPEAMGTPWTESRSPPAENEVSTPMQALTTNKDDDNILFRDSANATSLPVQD


Legend:
[1] = target: T1, Recombinant human monomeric IL-6R …; assay: BIAcore, antibody captured on anti-mouse Fc, monomeric receptor injected
[2] = target: T2, Recombinant monkey monomeric IL-6R …; assay: as above
[3] = target: T3, hIL-6R recombinant protein; assay: competition ELISA on plate-coated hIL-6R, competitor control antibody; similar SPR experiment

Row | Kd [1] [nM] | binding result [2] | binding result [3] | Binder
1 | 0.241 | no binding (tested: 1.25 - 40 nM) | – | VV1G4-7 (antibody, V domains shown, also called W1 G4; W1 G4-7) VH: QVQLVQSGAEVKEPGASVKVSCKASGYTFTSYDIIWVRQATGQGLEWMGWMNPNSGNTGYTQNLQGRVTLTRNTSITTVYMELSSLSSEDTAVYYCARDYSSHYYGLDVWGQGTTVTVSS VL: DIQLTQSPSFLSTSIGDRVTITCWASQDISNYLAWYQQKPGKAPKLLIFVASTLQSGVPSRFSGSGSGTEFTLTISSLQPEDFATYYCQQFNSYPLTFGGGTKVEIK
2 | – | – | binds | VV6F12-11 (antibody, V domains shown) VH: QVQLVQSGAEVKEPGASVKISCKASGYTFTSYDIIWVRQATGQGLEWMGWMNPNSGDRGYTQNLQGRVTLTRDTSISTVYMELSSLRSEDTAVYYCARDYSNHYYGLDVWGQGTTVTVSS VL: DIQLTQSPSFLSASVGDRVTITCWASQDISNYLAWYQQKPGKAPKLLIFVASTLQSGVPSRFSGSGSGTEFTLTISSLQPEDFATYYCQQFNSYPLTFGGGTKVEIR
3 | – | binds | binds | VQ8A9-6 (antibody, V domains shown) VH: EVQLVESGGNLVQPGRSLRLSCAASGFIFDDYAMHWVRQAPGKGLEWVSGISWNSGSIGYADSVKGRFTISRDNAKNSLYLQMNSLRAEDTALYYCAKDGGSSWLPFVYYYGMDVWGQGTTVTVSS VL: EIVMTQSPATLSVSPGERATLSCRASQSISSNFAWYQQKPGQAPRLLIYGASTRATGIPARFSGSGSGTDFTLTISSLQSEDFAVYYCQQYSSWPPYTFGQGTKLEIK
4 | – | – | binds | VV3D8-4 (antibody, V domains shown, also called W3D8) VH: EVQLVESGGGLVQPGRSLRLSCAASGFTFDDYALHWVRQAPGKGLEWVSGISWNSGRIGYADSVKGRFTISRDNAKNSLFLQMNSLRAEDTALYYCAKGRDAFDIWGQGTLVTVSS VL: DIQMTQSPSSVSASVGDRVTITCRASQGISSWLAWYQQKPGKAPKLLIYAASSLQSGVPSRFSGSGSGTDFTLTISSLQPEDFATYYCQQANSFPYTFGQGTKLEIK
5 | – | binds | binds | VQ8F11-21 (antibody, V domains shown, also called mAb1; sarilumab) VH: EVQLVESGGGLVQPGRSLRLSCAASRFTFDDYAMHWVRQAPGKGLEWVSGISWNSGRIGYADSVKGRFTISRDNAENSLFLQMNGLRAEDTALYYCAKGRDSFDIWGQGTMVTVSS VL: DIQMTQSPSSVSASVGDRVTITCRASQGISSWLAWYQQKPGKAPKLLIYGASSLESGVPSRFSGSGSGTDFTLTISSLQPEDFASYYCQQANSFPYTFGQGTKLEIK
6 | – | binds | binds | VV6A9-5 (antibody, V domains shown, also called W6A9-5) VH: EVQLVESGGGLVQPGRSLRLSCAASGFTFDDYALHWVRQAPGKGLEWVSGVSWNGGRIGYADSVKGRFTISRDNAKNSLFLQMNSLRVEDTALYYCAKGRDAFDIWGQGTLVTVSS VL: DIQMTQSPSSVSASVGDRVTITCRASQGISSWLAWYQQKPGKAPKLLIYAASSLQSGVPSRFSGSGSGTDFTLTISSLQPEDFATYYCQHAYSFPYTFGQGTKLEIK
7 | – | – | binds | VV6C10-3 (antibody, V domains shown, also called W6C10-3) VH: QVQLVQSGAEVKKPGASVKVSCKASGFNFFHYGITWVRQAPGQGLEWMGWISTYNGDTIYAQKVQGRVTMTTDTATSTAYMELRSLRSDDTAVYYCARSEQQVDYYFYGMDVWGQGTTVTVSS VL: EIVLTQSPATLSLSPGERATLSCRASQSVSSYLAWYQQKPGQAPRLLIYDASNRATGIPARFSGSGSGTDFTLTISSLEPEDFAFYYCQQRNNRPPFTFGPGTKVDVR
8 | – | – | binds | VV9A6-11 (antibody, V domains shown, also called W9A6) VH: QVQLVQSGAEVKKPGASVKVSCKASGYTFTSYGISWVRQAPGQGLEWMGWISAYNDDTNYAQKFQGRVTMTTDTSTSTAYMELRSLRSDDTAVYYCAREAQLVLYYYYGMDVWGQGTTVTVSS VL: EIVLTQSPATLSLSPGERATLSCRASQSVSSFLAWNQQKPGQAPRLLIYDASNRATGIPARFSGSGSGTDFTLTISSLEPEDFAVYYCQQRSNWPYIFGQGTKLEIK
